Where no end group is shown, it is not given here.
Assays:
[1] = target: PTH (1-34)-antibody of the enzyme immunoassay EIAS(h)-6101 (Peninsula Laboratories, Inc.); test: competitive EIA against biotinylated peptide for the PTH(1-34) antibody
[2] = target: T1, µ opioid receptor (bovine caudate nucleus synaptic membrane fraction) (bovine, UniProt P79350 1-401); test: displacement of 1 nM [3H]DAMGO, bovine caudate synaptic membranes; column Time 0 hours; mean ± SD
T1 construct: whole, on cells; Native receptor in brain membranes, not on intact cells; The tissue may hold other opioid receptors; also called µ-receptor; µ opioid receptors
Protocol: (§1) Affinities for […] opioid receptor were determined using [³H](D-Ala²,N-Me-Phe⁴, Gly-ol⁵) Enkephalin (DAMGO) (1 nM) as described by Christensen, 1993, Pharmacol. Toxicol. 73:344-345. In short: Bovine brains were placed on ice within minutes after the slaughter. The caudate nuclei were dissected and homogenized in 20 vol. of 0.32 M sucrose. The homogenate was centrifuged at 2000 g for 10 min. The pellet was re-suspended in 10 vol. of 50 mM Tris-HCl buffer 7.4 and stored at −20° C. until use. The synaptic membrane fraction was incubated with 1 nM of [3H]DAMGO in the presence of various concentrations of test ligand. Non-specifically bound [3H]-DAMGO was established using 1 μM naloxone. Following 15 min. incubation at 36° C. samples were filtered through Whatman GF/C filters and washed with buffer. Radioactivity was determined using conventional techniques.

[3] = target: T1, µ opioid receptor (bovine caudate …); test: displacement of 1 nM [3H]DAMGO, bovine caudate synaptic membranes; column Time 18 hours
[4] = target: T1, µ opioid receptor (bovine caudate …); test: displacement of 1 nM [3H]DAMGO, bovine caudate synaptic membranes; column Time 0 hours
Protocol: as §1

T1 sequence (P79350 whole entry): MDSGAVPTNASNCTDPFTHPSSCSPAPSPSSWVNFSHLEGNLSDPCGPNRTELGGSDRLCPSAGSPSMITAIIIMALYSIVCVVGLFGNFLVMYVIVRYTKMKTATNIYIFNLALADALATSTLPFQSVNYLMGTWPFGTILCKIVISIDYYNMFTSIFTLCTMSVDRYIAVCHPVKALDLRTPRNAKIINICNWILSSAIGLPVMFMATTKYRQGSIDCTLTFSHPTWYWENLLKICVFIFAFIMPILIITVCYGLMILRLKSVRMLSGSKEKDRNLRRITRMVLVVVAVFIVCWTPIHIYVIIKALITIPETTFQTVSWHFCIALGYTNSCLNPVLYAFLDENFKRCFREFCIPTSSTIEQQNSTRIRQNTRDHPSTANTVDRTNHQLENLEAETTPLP

**Q.** With SVSEIQLMHNLGKHLNSMERVEWLRKKLQDVHNF-OH [hPTH (1-34) (PTH(1-34)(Human)-OH)] as the binder, how does the Relative recovery % [1] read?
**A.** 90.8%

**Q.** How did the Relative recovery % [1] turn out when H-SVSEIQLMHNLGKHLNSMERVEWLRKKLQDVHNFKKKKKK-OH [H-hPTH(1-34)-K6-OH (PTH(1-34)(Human)-Lys6-OH)] was run?
**A.** 61.8%

**Q.** How did the Relative recovery % [1] turn out when H-KKKKKKSVSEIQLMHNLGKHLNSMERVEWLRKKLQDVHNF-OH [H-K6-PTH(1-34)-OH (Lys6-PTH(1-34)(Human)-OH)] was run?
**A.** 79.1%

**Q.** Which results are given for H-YGGFLKKKKKK-OH (also called H-Leu-enkephalin-Lys6) [Leu-Enkephalin-(Lys)6-OH (H-Tyr-Gly-Gly-Phe-Leu-Lys6-OH)]?
**A.** IC50 [2]: 17 nM; IC50 [3]: 32 nM

**Q.** Which IC50 [3] does the source give for H-YGGFLEEEEEE-OH [Leu-Enkephalin-(Glu)6-OH (H-Tyr-Gly-Gly-Phe-Leu-Glu6-OH)] here?
**A.** 5000 nM

**Q.** And the IC50 [4]?
**A.** 10000 nM

**Q.** With YGGFLKEKEKE-OH [Leu-Enkephalin-(Lys-Glu)3-OH] as the binder, how does the IC50 [2] read?
**A.** 450 nM

**Q.** And the IC50 [3]?
**A.** 900 nM
